No end group written: not given here.
Key:
Assay type in all cases: biochemical
recombinant human FAP = molecular target: T1, recombinant human FAP (Homo sapiens, UniProt Q12884); test: FRET-quench assay: probe cleavage by recombinant human FAP; conditions: 1 nM enzyme
T1 construct: (residues L26-D760 and L26-D761, respectively); octa-His (N); made in house; host or cells: transiently transfected CHO cells (conditioned media)
T1 sequence (Q12884 26-760): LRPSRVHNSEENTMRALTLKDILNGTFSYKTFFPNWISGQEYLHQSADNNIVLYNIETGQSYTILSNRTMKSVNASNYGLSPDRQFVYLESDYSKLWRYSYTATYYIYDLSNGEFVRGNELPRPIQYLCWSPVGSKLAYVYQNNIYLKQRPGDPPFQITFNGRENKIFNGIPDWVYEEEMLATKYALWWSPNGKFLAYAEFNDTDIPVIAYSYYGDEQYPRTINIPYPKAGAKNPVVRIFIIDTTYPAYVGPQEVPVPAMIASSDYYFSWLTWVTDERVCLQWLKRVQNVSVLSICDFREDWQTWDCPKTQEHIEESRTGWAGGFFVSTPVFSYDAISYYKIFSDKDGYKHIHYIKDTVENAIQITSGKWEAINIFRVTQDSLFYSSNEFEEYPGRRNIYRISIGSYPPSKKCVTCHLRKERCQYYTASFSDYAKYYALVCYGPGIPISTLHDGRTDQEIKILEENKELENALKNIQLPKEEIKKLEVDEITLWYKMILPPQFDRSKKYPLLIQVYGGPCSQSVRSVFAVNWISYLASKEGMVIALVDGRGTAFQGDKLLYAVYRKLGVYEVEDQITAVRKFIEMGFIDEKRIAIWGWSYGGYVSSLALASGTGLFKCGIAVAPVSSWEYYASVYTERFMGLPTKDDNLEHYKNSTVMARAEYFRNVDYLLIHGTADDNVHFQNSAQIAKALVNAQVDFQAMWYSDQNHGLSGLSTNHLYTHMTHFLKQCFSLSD
Excerpt: (§1) Human prolyl oligopeptidase (PREP, 4308-SE), DPPIV (1180-SE), DPP9 (5419-SE), and DPPII/DPP7 (3438-SE) proteins were purchased from R&D Systems. Human DPP8 (BML-SE527) protein was purchased from Enzo Life Sciences. N-terminal octa-His-tagged human and mouse FAP proteins containing the extracellular domain (residues L26-D760 and L26-D761, respectively) were purified from the conditioned media of transiently-transfected CHO cells, by immobilized metal affinity chromatography (IMAC), followed by size exclusion chromatography (SEC).
(§2) Peptides of the region flanking the C-terminal human FGF21 cleavage site (VGPSQG) or a variant with D-alanine at P2 (VaPSQG) were synthesized (Anaspec, Inc.), containing an amine-terminal donor (HyLite Fluor 488 or Cy5.5 for aP NIRF) and a dark quencher-acceptor (QXL 520 or QSY21 for aP NIRF) conjugated to a supplementary C-terminal lysine. ANPFAP (Bioconjugate Chem 23:1704-11) and aP NIRF were synthesized by CPC Scientific (Sunnyvale, Calif.). Assays were conducted at 37° C. in 50 mM HEPES (pH 7.2), 150 mM NaCl, 1 mM EDTA, 0.1 mg/ml BSA. The excitation/emission wavelengths of cleaved peptide are 490/520 nm or 675/695 nm for ANPFAP and aP NIRF. Fluorescence was monitored on a Tecan M1000 Pro plate reader in kinetic mode. Except where indicated otherwise, measurements of serum or plasma FAP activity were performed with the peptide substrate concentration at 6 μM and a 10-fold dilution of serum or plasma in assay buffer.

[1] = system: human S9 and S28 peptidases; test: aP cleavage by a panel of recombinant human prolyl peptidases; conditions: each recombinant peptidase at 2.5 μg/ml
Excerpt: as §1
as §2, with “Except where indicated otherwise, measurements of serum or plasma FAP activity were performed with the peptide substrate concentration at 6 μM and a 10-fold dilution of serum or plasma in assay buffer.” left out

[2] = system: human or mouse recombinant FAP; test: Michaelis-Menten kinetics of GP and aP cleavage by recombinant FAP; conditions: corrected for active enzyme concentration
Description: Michaelis-Menten kinetic measurements were carried out using 5 nM human or mouse recombinant FAP, with a series of peptide substrate titrations. Initial rate of substrate hydrolysis was determined using the Magellan software on a Tecan M1000 Pro plate reader and kinetic parameters were modeled using nonlinear regression analysis with GraphPad Prism software. Standard error was calculated from three experimental replicates.
As described by Copeland ((2000) Enzymes: a practical introduction to structure, mechanism, and data analysis, 2nd ed., J. Wiley, New York) the active enzyme concentration was determined from the x-intercept.

FAP = molecular target: T2, FAP (Homo sapiens, UniProt Q12884); test: aP cleavage in anti-FAP or control IgG-immunodepleted human serum; conditions: after FAP immunodepletion; serum diluted 2.5-fold
T2 construct: the extracellular domain encoding the active enzyme can be shed from the cell surface; tissue Discovery Life Sciences, Inc. (part of the samples); host or cells: human serum (healthy donors, cirrhosis patients)
T2 sequence (Q12884 24-760 limits assumed): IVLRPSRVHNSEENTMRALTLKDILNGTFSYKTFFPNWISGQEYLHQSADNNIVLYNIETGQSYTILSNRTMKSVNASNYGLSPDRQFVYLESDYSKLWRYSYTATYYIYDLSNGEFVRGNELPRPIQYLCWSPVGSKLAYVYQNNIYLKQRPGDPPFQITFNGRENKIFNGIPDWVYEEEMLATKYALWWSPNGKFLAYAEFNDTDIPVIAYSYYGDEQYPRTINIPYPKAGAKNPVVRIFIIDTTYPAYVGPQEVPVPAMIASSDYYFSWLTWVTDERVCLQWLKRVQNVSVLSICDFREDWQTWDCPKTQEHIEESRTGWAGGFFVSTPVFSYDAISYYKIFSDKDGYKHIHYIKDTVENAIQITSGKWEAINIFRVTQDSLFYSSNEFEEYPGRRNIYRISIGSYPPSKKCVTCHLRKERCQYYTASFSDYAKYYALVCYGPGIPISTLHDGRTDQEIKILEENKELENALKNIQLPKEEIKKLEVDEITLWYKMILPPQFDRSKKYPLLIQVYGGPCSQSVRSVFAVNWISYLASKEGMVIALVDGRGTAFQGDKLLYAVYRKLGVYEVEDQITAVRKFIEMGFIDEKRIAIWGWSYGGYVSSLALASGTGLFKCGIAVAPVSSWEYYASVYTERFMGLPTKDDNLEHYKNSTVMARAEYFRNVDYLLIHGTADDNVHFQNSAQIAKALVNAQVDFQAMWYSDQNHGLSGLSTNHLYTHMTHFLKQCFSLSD
Description: (§3) Mouse plasma samples were prepared in K3-EDTA MiniCollect tubes (Greiner Bio-One, 450475) and frozen immediately at −80° C. prior to analysis. Human serum samples were obtained from healthy donors or purchased from Discovery Life Sciences, Inc. (Los Osos, Calif.).
as §2

serum FAP = molecular target: T3, serum FAP (Homo sapiens, UniProt Q12884); test: aP probe fluorescence assay of FAP activity in human serum versus FAP ELISA
T3 construct: the extracellular domain encoding the active enzyme can be shed from the cell surface; tissue Discovery Life Sciences, Inc. (part of the samples); host or cells: human serum (healthy donors, cirrhosis patients)
T3 sequence (Q12884 24-760 limits assumed): T2 sequence (Q12884 24-760 limits assumed)
Description: as §3
Serum FAP concentration was measured using the human FAP DuoSet ELISA kit (R&D Systems, DY3715), according to the manufacturer's protocol.
as §2

| Substance | cleavage by recombinant human FAP (recombinant human FAP) | cleavage by human S9 and S28 peptidases [1] | Km relative to parental GP peptide [2] | decrease in kcat relative to GP peptide [2] | cleavage signal in human serum (FAP) | lowest FAP level detected with the activity assay (serum FAP) [ng/mL] |
| --- | --- | --- | --- | --- | --- | --- |
| aP probe: FGF21-based peptide VaPSQG (D-alanine at P2) with HyLite Fluor 488 donor and QXL 520 quencher | clearly detectable | did not exhibit an ability to cleave | essentially unchanged | seven to eight-fold decrease | signal is lost | 63 |
| GP probe: human FGF21 cleavage-site peptide VGPSQG with amine-terminal HyLite Fluor 488 donor and QXL 520 quencher on supplementary C-terminal lysine ({HyLite Fluor 488}-VGPSQGK(QXL 520)) | readily cleaved |  |  |  |  |  |

Reference: patent US20200055896A1, “SUBSTRATES RECOGNIZED BY FIBROBLAST ACTIVATION PROTEIN (FAP) AND METHODS OF USING THE SAME” (GENENTECH, INC., priority 2017, published 2020)
